Consider 3 molecules from patent US20110318757A1 (MAB FACTORY, published 2011).

For assay [1], the target named is T1, MUC1 (surface cell bound, tumor associated MUC1) (human, UniProt P15941 24-1255, tumor-associated O-glycosylation).
T1 construct: whole, on cells; Endogenous MUC1 on tumor cell lines; also called CD227; CA-15-3
In words: FACS on T47D cells, antibody at 100.0000 µg/ml. How it is done: (§1) From these antibody solutions further dilution by a factor of 3.162 were made (in a PP microtiter plate), so following antibody concentrations were used for FACS (μg/mL): 100, 31.62 10; 3.16; 1; 0.316; 0.1, 0.0316, 0.01, 0.003162
(§2) bound anti-MUC1 antibodies were detected by: goat anti-human IgG (H+L) Alexa488 conj. 1:200=10 μg/mL final (Invitrogen resp. Molecular probes Cat.No. A-11013) in 100 μL FACS buffer in total: 38.5 μL (stock: 2 mg/mL) were given to 7661.5 μL FACS buffer
(§3) The measurement was performed on a Beckman Coulter Cytomics FC500. Gates were set by analyzing a mock-control of each cell line w/o any antibody incubation. Specific protocol files (.pro) were saved.

Assay [2] addresses T1, MUC1 (surface cell bound, tumor …). Briefly: FACS on T47D cells, antibody at 31.6228 µg/ml. How it is done: as §1, §2, §3
Assay [3] shares this target. In words: FACS on T47D cells, antibody at 0.1000 µg/ml. How it is done:
as §1, §2, §3

The target is the same in assay [4]. Briefly: FACS on T47D cells, antibody at 0.0100 µg/ml. The protocol: as §1, §2, §3
Assay [5] shares this target. In words: FACS on T47D cells, antibody at 0.0032 µg/ml. The protocol: as §1, §2, §3
Assay [6] has the same target. Briefly: FACS on T47D cells, antibody at 3.1623 µg/ml. The protocol: as §1, §2, §3
Assay [7] shares this target. Briefly: FACS on T47D cells, antibody at 0.3162 µg/ml. The protocol:
as §1, §2, §3

Assay [8] shares this target. In words: FACS on T47D cells, antibody at 10.0000 µg/ml. The protocol: as §1, §2, §3
The target is the same in assay [9]. Briefly: FACS on T47D cells, antibody at 1.0000 µg/ml. The protocol:
as §1, §2, §3

For assay [10] the target is unchanged. Briefly: FACS on T47D cells, antibody at 0.0316 µg/ml. The protocol:
as §1, §2, §3

T1 sequence (P15941 24-1255): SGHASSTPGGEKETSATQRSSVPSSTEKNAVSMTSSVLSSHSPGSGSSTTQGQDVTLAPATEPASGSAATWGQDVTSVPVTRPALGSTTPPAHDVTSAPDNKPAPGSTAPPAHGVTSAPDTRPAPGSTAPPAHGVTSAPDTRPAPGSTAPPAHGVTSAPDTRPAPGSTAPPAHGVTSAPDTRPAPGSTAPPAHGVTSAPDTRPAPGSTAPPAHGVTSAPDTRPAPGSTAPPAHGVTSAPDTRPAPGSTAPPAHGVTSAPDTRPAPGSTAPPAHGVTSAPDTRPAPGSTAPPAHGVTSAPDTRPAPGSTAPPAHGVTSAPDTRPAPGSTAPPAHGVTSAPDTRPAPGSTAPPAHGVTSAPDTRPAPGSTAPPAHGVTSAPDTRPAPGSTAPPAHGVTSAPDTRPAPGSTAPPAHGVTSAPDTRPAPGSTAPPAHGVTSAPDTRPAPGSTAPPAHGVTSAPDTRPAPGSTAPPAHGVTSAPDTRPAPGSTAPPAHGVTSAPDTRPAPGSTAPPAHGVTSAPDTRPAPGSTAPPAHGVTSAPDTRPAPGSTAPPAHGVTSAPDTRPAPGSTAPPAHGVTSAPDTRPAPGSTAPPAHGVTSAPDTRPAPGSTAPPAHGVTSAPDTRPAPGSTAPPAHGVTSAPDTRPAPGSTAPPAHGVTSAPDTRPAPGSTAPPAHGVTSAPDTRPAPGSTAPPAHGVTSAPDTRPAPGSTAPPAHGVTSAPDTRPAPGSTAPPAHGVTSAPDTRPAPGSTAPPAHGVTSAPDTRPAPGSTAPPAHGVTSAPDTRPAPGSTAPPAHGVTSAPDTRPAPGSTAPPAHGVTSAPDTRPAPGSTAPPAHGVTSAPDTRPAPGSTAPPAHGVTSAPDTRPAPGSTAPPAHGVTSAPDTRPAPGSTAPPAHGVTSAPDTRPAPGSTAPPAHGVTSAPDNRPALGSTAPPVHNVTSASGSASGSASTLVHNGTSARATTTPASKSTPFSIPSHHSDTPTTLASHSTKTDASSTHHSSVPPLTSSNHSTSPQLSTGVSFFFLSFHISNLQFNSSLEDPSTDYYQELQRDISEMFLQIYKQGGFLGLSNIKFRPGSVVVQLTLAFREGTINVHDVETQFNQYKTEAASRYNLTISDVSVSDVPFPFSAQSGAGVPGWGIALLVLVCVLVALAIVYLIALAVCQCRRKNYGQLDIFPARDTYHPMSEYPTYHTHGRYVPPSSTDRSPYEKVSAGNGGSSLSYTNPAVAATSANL

B1: R764-B7 (HT186-B7 IgG) (antibody, V domains shown)
VH: QMQLVQSGAEVKKPGASVKVSCKASGYTFTGHYMHWVRQAPGQGLEWMGWIDPVTGGTKYAQNFQGWVTMTRDTSIRTAYMELSRLRSDDTAMYYCAREVTGDRGQFDKWGQGTLVTVAS
VL: QSVLTQPPSVSVAPGKTARITCGGNNIGSKSVHWYQQKPGQAPALVIYYGSYRPSGIPERFSGSNYGNTATLTIRRVEAGDEADYYCQVWDSSSDWVFGGGTKLTVLG
notes: Human IgG1, lambda, produced in YB2/0 cells
Regarding B1, the MFI in assay [1] amounted to 12.6; in [2] it was 9.16; in [3], 0.728; in assay [4], 1.11; in assay [5], 0.738; in [6], 4.96. Moreover, the MFI was found to be 1.44 in assay [7], 6.56 in assay [8], 2.26 in assay [9] and 1.04 in assay [10].

B2: R764-G2 (HT186-G2 IgG) (antibody, V domains shown)
VH: RMQLVQSGAEVKKPGASVKLSCKASGYTFAGHYMHWVRQAPGRGLEWMGWIDPVTGGTKYAQNFQGWVTMTRDTSIRTAYMELSRLRSDDTAMYYCAREVTGDRGQFDKWGQGTLVTVAS
VL: QSVLTQPPSVSVAPGKTARITCGGNNIGSKSVHWYQQKPGQAPVLVIYYGSDRSSGIPERFSGSNSGNTATLTISRVEAGDEADYYCQVWDSSSDWVFGGGTKLTVLG
notes: as for B1
As to B2, the MFI in assay [1] amounted to 6.15; in assay [2], 3.68; in assay [3], 0.664; in assay [4], 0.767; in assay [5], 0.706; in assay [6], 0.802. For the same molecule, the MFI amounted to 0.515 in assay [7], 1.99 in assay [8], 0.605 in assay [9] and 1.04 in [10].

B3: R764-D11 (HT186-D11 IgG) (antibody, V domains shown)
VH: QMQLVQSEAELKKPGASVKVSCKASGYSFTGHYMHWVRQAPGQGLEWMGWIDPVTGGTKYAQNFQGWVTMTRDTSIRTAYLELSRLRSDDTAMYYCAREVTGDRGQFDKWGQGTLVTVAS
VL: QSVLTQPPSVSVAPGKTARITCGGNNIGSKSVHWYQQKPGQAPALVIYYGSNRPSGIPERFSGSNSGNTATLTISRVEAGDEADYYCQVWDSSSDWVFGGGTKLTVLG
notes: Human IgG1, lambda, produced in YB2/0 cells; also called R764 HT186-D11
For the molecule B3, the MFI was found to be 17.4 in assay [1]; 13.2 in [2]; 1.45 in assay [3]; 1.09 in [4]; 1.17 in [5]; 7.92 in assay [6]. Further, the MFI worked out at 1.96 in assay [7], 11.1 in [8], 4.72 in [9] and 1.13 in [10].
